Data published in US12618835B2, “Multiplex microelectrode array for detection of proteases as biomarkers” (Kansas State University Research Foundation, priority 2021, dated 2026).
“Also recorded” adds a separate entry of the source. Where no end group is shown, it is not given here. [ ]: non-standard residue; d: D form. The star is where a group is joined. aminomethylferrocene = [Fe+2].c1cc[c-](CN*)c1.c1cc[cH-]c1; Ava = NCCCCC(=O)O

Columns and labels:
cathepsin B [1] = molecular target: T1, cathepsin B (Homo sapiens, UniProt P07858); assay: Screening of peptide-Fc substrates for cathepsin B (electrochemical measurements, fluorogenic assays, HPLC-MS); format: biochemical; conditions: for proteolysis rate by cathepsin B compared to other candidates: library of nine peptide-Fc substrates
Excerpt: A library of nine peptide substrates was examined initially for proteolysis using cathepsin B (Table S1). […] The order and amino acid sequence of the peptide substrates were designed according to the literature reported sequences with minor modifications. Among the nine peptides, three most reactive peptide substrates, i.e., H-3, H-15, and H-16 (Table 1), were selected for our studies on cathepsin B activity profiling. The peptides were designed based on literature reports and synthesized using a solid-phase microwave peptide synthesizer detailed in the Supporting Information below. For example, peptide H-15, a representative peptide, was made by the coupling of H-Ala-2-chlorotrityl resin with various N-fluorenylmethyloxycarbonyl-amino acids (N-Fmoc-amino acids) sequentially, condensing with the linker N-Boc-NH—(CH2)4—CO2H, cleavage of the peptide from the resin, re-protection of the amino group of linker, bonding with (aminomethyl)ferrocene, and removal of the protecting group.
We have designed and synthesized nine different peptide-Fc substrates containing 6-8 amino acids (listed in Table S1 below) for proteolysis by cathepsin B based on the specific recognition reported in literature and tested the cathepsin B activities on these peptide-Fc substrates by the combination of electrochemical measurements (using Au disk electrodes and VACNF nanoelectrode arrays), fluorogenic assays and HPLC-MS analysis.

cathepsin B [2] = molecular target: T1, cathepsin B; assay: Determination of cleavage sites by HPLC-MS; format: biochemical; set-up: purchased R&D Systems Inc. (Minneapolis, MN); conditions: 50 mM MES pH 5.0, 250 mM NaCl, 0.17 μM cathepsin B, 2 h and 3 h
Excerpt: Here, the data is normalized to the value of ip0 derived from the fitting data according to eq 9. This normalization accounts for variations in I′ of the peptide-Fc substrate between each of the electrodes, and the values of ip0 and values of ip0 are listed in Table S3. […] FIG. 8b is a bar graph illustrating the differences in the measured values of 1/τ broken down by channels with H-16 (shown in blue), H-15 (shown in red) and H-3 (shown in green), similar to FIG. 8a. Here the average values of 1/τ were measured to be (8.9±1.1)×10^−4 s^−1, (6.8±1.8)×10^−4 s^−1, and (7.4±0.9)×10^−4 s^−1 for H-16, H-15 and H-3, respectively. These three peptides show similar values of 1/τ because the majority of the amino acid sequences are similar. […] For peptide H-15, all analyte solutions contained 6.5 mM peptide H-15, 50 mM MES buffer (pH 5.0) and 250 mM NaCl. Chromatograms of the peptide in the solution were then analyzed. H-15 appeared at 35.9 min in the chromatogram as verified by mass spectrometry. After incubation with cathepsin B for 2 h the cleaved fragment connected to the Fc moiety appeared at 16.0 min in the chromatogram as verified by mass spectrometry [showing a mass of 626.5 [M+23(Na)] in the mass spectrum]. A final chromatogram of peptide H-15 obtained after incubation with 5.75 ng/μL (0.17 μM) cathepsin B for 3 h confirms the cleavage site. Analyte solution for peptide H-16 was 50 mM MES (pH 5.0) and 250 mM NaCl. The hexapeptide appeared at 33.4 min in the HPLC chart and its structure was verified by mass spectrometry analysis. After treatment of hexapeptide H-16 with cathepsin B in 50 mM MES (pH 5.0) and 250 mM NaCl for 2 h the cleaved fragment appeared at 16.0 min and its structure was verified by MS analysis [showing a mass of 625.043 (M−H2+1) in the mass spectrum]. Cleavage was confirmed by incubation of 6.5 mM peptide H-16 in 50 mM MES (pH 5.0) and 250 mM NaCl incubated with 5.75 ng/μl (0.17 μM) cathepsin B for 3 h.
The cleavage sites of the hexapeptide-Fc substrates were examined using HPLC as described above. Analytical HPLC was performed with a Shimadzu SCL-10A HPLC system fitted with a proto 300 C18 reverse phase semi-prep column (10 μm, 250×10 mm). The flow rate was 1 ml/min with a gradient elution starting from 100% solvent A (water containing 0.1% TFA) to 20% solvent A and 80% solvent B (acetonitrile containing 0.1% TFA) over 50 min. The UV absorbance was monitored at 254 nm. […] The absorbance peak at ˜33.5 min was peptide H-16 and peak at 16.0 min is assigned as [Leu-Ala-Gly-Val-Ala-NH═CH-Fc]^+ (residues 2-6 of SEQ ID NO:3) (mass of 625.288). […]

Substance	proteolysis rate by cathepsin B compared to other candidates (cathepsin B [1])	proteolytic activity by cathepsin B among synthesized peptides (cathepsin B [1]; selected from about 30 synthesized peptides)	cleavage site by cathepsin B (cathepsin B [2])	cleavage site by cathepsin B (cathepsin B [2]; listed as peptide-Fc)
H2N-(CH2)4-CO-Pro-Leu-Ala-Phe-Val-Ala-NH-CH2-Fc ([Ava]PLAFVA-aminomethylferrocene) [Peptide H-15]	most reactive; also recorded: higher proteolysis rates	highest proteolytic activity	between Leu and Ala residues	between Leu and Ala
H2N-(CH2)4-CO-Pro-Leu-Ala-Gly-Val-Ala-NH-CH2-Fc ([Ava]PLAGVA-aminomethylferrocene) [Peptide H-16]	most reactive; also recorded: higher proteolysis rates	–	between Pro-Leu	–
H2N-(CH2)4-CO-Pro-Leu-Arg-Phe-Gly-Ala-NH-CH2-Fc ([Ava]PLRFGA-aminomethylferrocene) [Peptide H-3]	most reactive; also recorded: higher proteolysis rates	–	between Gly-Ala and Phe-Gly residues	–
